# From US8026218 (UNIVERSITY OF ARIZONA, dated 2011)
# Where two headings read alike, the source gives them in different places. Bridge positions count the residues as written; N and C are the ends. Square brackets hold non-standard residues; d marks the D form. Ends that are not written are not given here. * marks the point of attachment. Glc = O-glucosyl on Ser side chain (Ser(OGlu)/Ser(OGlc)); NH(3,5-(CF3)2-benzyl) = FC(F)(F)c1cc(CN*)cc(C(F)(F)F)c1; OBzl(3,5-(CF3)2) = FC(F)(F)c1cc(CO*)cc(C(F)(F)F)c1; NH‑Bn(CF3)2 = C-terminal Bn(CF3)2 amide; Dmt = Cc1cc(O)cc(C)c1C[C@H](N)C(=O)O; Met(O) = CS(=O)CC[C@H](N)C(=O)O; NMe(benzyl) = CN(Cc1ccccc1)*; Nle = CCCC[C@H](N)C(=O)O; NHBn = c1ccc(CN*)cc1; OBn = c1ccc(CO*)cc1; βAla = NCCC(=O)O
# How the values were obtained:
# human δ opioid receptor [1] = molecular target: human δ opioid receptor (human, UniProt P41143 1-372); assay: cell-based or functional assay
# Target sequence in this assay (P41143 whole entry, stated change not applied): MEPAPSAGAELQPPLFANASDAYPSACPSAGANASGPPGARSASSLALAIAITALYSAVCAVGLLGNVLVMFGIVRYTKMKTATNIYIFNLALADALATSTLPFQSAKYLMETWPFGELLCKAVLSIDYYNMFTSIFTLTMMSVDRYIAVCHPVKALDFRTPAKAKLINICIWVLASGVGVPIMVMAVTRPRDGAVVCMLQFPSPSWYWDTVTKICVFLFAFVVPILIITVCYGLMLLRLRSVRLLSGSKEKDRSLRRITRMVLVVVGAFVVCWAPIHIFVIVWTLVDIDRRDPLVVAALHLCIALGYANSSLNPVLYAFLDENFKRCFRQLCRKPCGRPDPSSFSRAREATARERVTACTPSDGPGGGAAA
# rat µ opioid receptor [2] = molecular target: T1, rat µ opioid receptor (rat, UniProt P33535 1-398); assay: cell-based or functional assay
# T1 sequence (P33535 whole entry): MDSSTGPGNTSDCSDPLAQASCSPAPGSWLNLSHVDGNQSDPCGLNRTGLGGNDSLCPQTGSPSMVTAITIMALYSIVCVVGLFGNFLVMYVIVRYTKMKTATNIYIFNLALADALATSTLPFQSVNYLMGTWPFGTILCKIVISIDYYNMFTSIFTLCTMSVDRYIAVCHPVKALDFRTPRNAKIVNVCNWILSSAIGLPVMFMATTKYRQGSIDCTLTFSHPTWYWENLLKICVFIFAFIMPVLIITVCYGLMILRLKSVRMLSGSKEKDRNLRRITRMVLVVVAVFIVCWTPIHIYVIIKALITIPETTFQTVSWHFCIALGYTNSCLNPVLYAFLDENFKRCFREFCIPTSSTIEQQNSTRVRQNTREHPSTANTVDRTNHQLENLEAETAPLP
# human δ opioid receptor [3] = molecular target: T2, human δ opioid receptor (human, UniProt P41143 1-372); assay: competition vs [3H]DPDPE, membranes of hDOR-transfected HN9.10 cells
# T2 construct: whole, on cells; Assayed as membrane preparations of transfected cells; also called hDOR; DOR
# T2 sequence (P41143 whole entry, stated change not applied): as the sequence (P41143 whole entry, stated change not applied) above
# rat µ opioid receptor [4] = molecular target: T3, rat µ opioid receptor (rat, UniProt P33535 1-398); assay: competition vs [3H]DAMGO, membranes of rMOR-transfected HN9.10 cells
# T3 construct: whole, on cells; Assayed as membrane preparations of transfected cells; also called rMOR; MOR
# T3 sequence (P33535 whole entry): as the sequence (P33535 whole entry) above
# rat µ opioid receptor [5] = molecular target: T3, rat µ opioid receptor; assay: cell-based or functional assay; remark: listed apart in the source
# human δ opioid receptor [6] = molecular target: T2, human δ opioid receptor; assay: cell-based or functional assay; remark: listed apart in the source
# [7] = molecular target: µ opioid receptor of the guinea pig isolated ileum (guinea pig); assay: cell-based or functional assay
# guinea pig NK1 receptor [8] = molecular target: guinea pig NK1 receptor (guinea pig, UniProt P30547 1-407); assay: cell-based or functional assay
# Target sequence in this assay (P30547 whole entry): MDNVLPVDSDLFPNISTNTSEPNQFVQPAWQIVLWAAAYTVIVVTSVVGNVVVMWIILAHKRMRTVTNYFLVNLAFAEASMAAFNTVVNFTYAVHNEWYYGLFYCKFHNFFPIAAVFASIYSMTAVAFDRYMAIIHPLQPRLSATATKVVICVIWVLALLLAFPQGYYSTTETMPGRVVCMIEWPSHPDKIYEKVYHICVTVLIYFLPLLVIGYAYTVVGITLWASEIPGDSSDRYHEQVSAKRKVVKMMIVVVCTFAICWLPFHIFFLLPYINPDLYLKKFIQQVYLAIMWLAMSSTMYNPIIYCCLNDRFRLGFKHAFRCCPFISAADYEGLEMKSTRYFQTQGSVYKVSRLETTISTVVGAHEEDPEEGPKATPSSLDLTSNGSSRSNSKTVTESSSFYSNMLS
# rat NK1 receptor [9] = molecular target: T4, rat NK1 receptor (rat, UniProt P14600 1-407); assay: competition vs [3H]substance P, membranes of rNK1-transfected CHO cells
# T4 construct: whole, on cells; Assayed as membrane preparations of transfected CHO cells; also called rNK1; rNK-1
# T4 sequence (P14600 whole entry): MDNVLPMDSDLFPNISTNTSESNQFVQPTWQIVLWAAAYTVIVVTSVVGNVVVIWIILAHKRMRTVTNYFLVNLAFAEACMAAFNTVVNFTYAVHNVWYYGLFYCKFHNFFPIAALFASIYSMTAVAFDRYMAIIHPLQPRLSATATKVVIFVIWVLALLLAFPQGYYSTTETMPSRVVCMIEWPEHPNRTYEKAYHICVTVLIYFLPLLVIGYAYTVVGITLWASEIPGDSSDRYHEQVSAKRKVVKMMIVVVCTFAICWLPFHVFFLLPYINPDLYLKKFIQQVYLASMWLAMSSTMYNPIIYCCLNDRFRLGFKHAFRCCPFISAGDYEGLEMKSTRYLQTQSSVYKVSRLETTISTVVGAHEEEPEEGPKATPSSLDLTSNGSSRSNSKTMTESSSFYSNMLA
# rat NK1 receptor [10] = molecular target: T4, rat NK1 receptor; assay: as above; remark: listed apart in the source
# human NK1 receptor [11] = molecular target: T5, human NK1 receptor (human, UniProt P25103 1-407); assay: competition vs [3H]substance P, membranes of hNK1-transfected CHO cells
# T5 construct: whole, on cells; Assayed as membrane preparations of transfected CHO cells; also called hNK1; human neurokinin-1 receptor
# T5 sequence (P25103 whole entry): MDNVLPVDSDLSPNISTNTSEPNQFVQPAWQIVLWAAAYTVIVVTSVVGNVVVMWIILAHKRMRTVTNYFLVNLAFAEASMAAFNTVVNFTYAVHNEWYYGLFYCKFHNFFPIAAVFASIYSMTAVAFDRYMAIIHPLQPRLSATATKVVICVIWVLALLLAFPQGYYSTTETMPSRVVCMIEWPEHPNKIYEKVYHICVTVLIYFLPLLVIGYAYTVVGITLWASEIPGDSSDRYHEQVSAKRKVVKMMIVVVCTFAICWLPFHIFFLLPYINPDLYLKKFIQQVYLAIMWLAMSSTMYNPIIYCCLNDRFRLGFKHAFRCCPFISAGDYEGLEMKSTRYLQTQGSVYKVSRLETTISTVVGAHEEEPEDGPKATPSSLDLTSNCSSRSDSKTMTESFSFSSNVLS
# human δ opioid receptor [12] = molecular target: T6, human δ opioid receptor (human, UniProt P41143 1-372); assay: radioligand competition vs [3H]DPDPE, membranes of hDOR cells
# T6 construct: whole, on cells; Used as crude membrane preparations of the transfected cells; also called hDOR; DOR
# T6 sequence (P41143 whole entry, stated change not applied): as the sequence (P41143 whole entry, stated change not applied) above
# rat µ opioid receptor [13] = molecular target: T7, rat µ opioid receptor (rat, UniProt P33535 1-398); assay: radioligand competition vs [3H]DAMGO, membranes of rMOR cells
# T7 construct: whole, on cells; Used as crude membrane preparations of the transfected cells; also called rMOR; MOR
# T7 sequence (P33535 whole entry): as the sequence (P33535 whole entry) above
# guinea pig NK1 receptor [14] = molecular target: guinea pig NK1 receptor (guinea pig, UniProt P30547 1-407); assay: cell-based or functional assay; remark: listed apart in the source
# Target sequence in this assay (P30547 whole entry): as the sequence (P30547 whole entry) above
# rat µ opioid receptor [15] = molecular target: T7, rat µ opioid receptor; assay: cell-based or functional assay; remark: listed apart in the source
# [16] = molecular target: µ opioid receptor of the guinea pig isolated ileum (guinea pig, UniProt P97266 1-98); assay: cell-based or functional assay
# human δ opioid receptor [17] = molecular target: T6, human δ opioid receptor; assay: cell-based or functional assay; remark: listed apart in the source
# human NK1 receptor [18] = molecular target: T8, human NK1 receptor (human, UniProt P25103 1-407); assay: radioligand competition vs [3H]substance P, membranes of hNK1 CHO cells
# T8 construct: whole, on cells; Used as membrane preparations of transfected CHO cells; also called hNK1; human neurokinin-1 receptor
# T8 sequence (P25103 whole entry): as the sequence (P25103 whole entry) above
# rat NK1 receptor [19] = molecular target: T9, rat NK1 receptor (rat, UniProt P14600 1-407); assay: radioligand competition vs [3H]substance P, membranes of rNK1 CHO cells
# T9 construct: whole, on cells; Used as membrane preparations of transfected CHO cells; also called rNK1; rat neurokinin-1 receptor
# T9 sequence (P14600 whole entry): as the sequence (P14600 whole entry) above
# rat NK1 receptor [20] = molecular target: T10, rat NK1 receptor (rat, UniProt P14600 1-407); assay: competition vs [3H]Substance P, rNK1 CHO cell membranes
# T10 construct: whole, on cells; membrane preparations of the transfected cells were used; also called rNK1; rNK-1
# T10 sequence (P14600 whole entry): as above
# rat µ opioid receptor [21] = molecular target: T1, rat µ opioid receptor; assay: competition vs [3H]DAMGO, rMOR cell membranes
# Chain of µ opioid receptor of the guinea pig isolated ileum (P97266 whole entry): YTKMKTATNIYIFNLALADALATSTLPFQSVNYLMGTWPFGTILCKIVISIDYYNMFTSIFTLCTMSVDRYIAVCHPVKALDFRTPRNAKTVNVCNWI
Binder,Ki (human δ opioid receptor [12]),Ki (rat µ opioid receptor [13]),GPI/LMMP SP antagonist Ke (guinea pig NK1 receptor [14]),GTP binding rMOR EC50 (rat µ opioid receptor [15]),GTP binding rMOR Emax (rat µ opioid receptor [15]),GPI/LMMP opioid(mu) agonist IC50 [16],GTP binding hDOR EC50 (human δ opioid receptor [17]),GTP binding hDOR Emax (human δ opioid receptor [17]),Ki (human NK1 receptor [18]),Ki (rat NK1 receptor [19]),also measured
Y[dA]GFGW-{O‑Bzl(CF3)2} [Tyr-DAla-Gly-Phe-Gly-Trp-O-Bzl(CF3)2],,,,,,,,,,,GTP EMax (human δ opioid receptor [1]): 87; GTP EMax (rat µ opioid receptor [2]): 36
"H-Y[dA]GFLPLW-{OBzl(3,5-(CF3)2)} (also: TFA salt, TFA salt; also called TY004) [H-Tyr-D-Ala-Gly-Phe-Leu-Pro-Leu-Trp-O-3,5-Bzl(CF3)2]",,,,,,,,,,,Ki (human δ opioid receptor [3]): 5 nM; LogIC50 (human δ opioid receptor [3]): -7.97; Ki (rat µ opioid receptor [4]): 23.3 nM; [35S]GTP-γ-S binding Emax (rat µ opioid receptor [5]): 46%; [35S]GTP-γ-S binding EC50 (human δ opioid receptor [6]): 9.6 nM; [35S]GTP-γ-S binding Emax (human δ opioid receptor [6]): 44%; [35S]GTP-γ-S binding LogEC50 (human δ opioid receptor [6]): -8.09; GPI (µ) opioid agonist IC50 [7]: 341 nM; Substance P GPI antagonist Ke (guinea pig NK1 receptor [8]): 19.4 nM; IC50 (rat NK1 receptor [9]): 20.9 nM; LogIC50 (rat NK1 receptor [9]): -7.7
"H-Y[dA]GFPLW-OBn (also: TFA salt, TFA salt; also called TY011) [H-Tyr-DAla-Gly-Phe-Pro-Leu-Trp-O-Bzl]",,,,,,,,,,,Ki (rat NK1 receptor [10]): 270 nM; LogIC50 (rat NK1 receptor [10]): -6.1; Ki (human NK1 receptor [11]): 100 nM; LogIC50 (human NK1 receptor [11]): -6.7
"YAGFXPLW (D-Ala at 2; Nle (norleucine, written X) at 5; C-terminal 3,5-bis(trifluoromethyl)benzyl ester, TFA salt; also called TY018) [H-Tyr-D-Ala-Gly-Phe-Nle-Pro-Leu-Trp-O-3,5-Bzl(CF3)2]",,,,,,,,,,,Ki (human δ opioid receptor [3]): 1.8 nM; LogIC50 (human δ opioid receptor [3]): -8.42; [35S]GTP-γ-S binding EC50 (human δ opioid receptor [6]): 4 nM; [35S]GTP-γ-S binding Emax (human δ opioid receptor [6]): 129%; [35S]GTP-γ-S binding LogEC50 (human δ opioid receptor [6]): -8.4; GPI (µ) opioid agonist IC50 [7]: 372 nM; Substance P GPI antagonist Ke (guinea pig NK1 receptor [8]): 7.9 nM
"Y[dC]GF[Nle]PCW-{NH(3,5-(CF3)2-benzyl)} (disulfide 2-7, also called [D-Cys2, Cys7]TY027) [Tyr[DCysGlyPheNleProCys]TrpNHBn(CF3)2 (TY035)]",1.29 nM,79.2 nM,2.2 nM,36 nM,39%,1010 nM,0.02 nM,11%,0.091 nM,,
"H-Y[dA]GFPLW-{NH(3,5-(CF3)2-benzyl)} (also: TFA salt, TFA salt; also called TY012) [H-Tyr-D-Ala-Gly-Phe-Pro-Leu-Trp-NH-3,5-Bzl(CF3)2]",,,,,,,,,,,Ki (rat NK1 receptor [10]): 33 nM; LogIC50 (rat NK1 receptor [10]): -7; Ki (human NK1 receptor [11]): 0.61 nM
"Y[dA]GF[dF]PLW-{OBzl(3,5-(CF3)2)} [TyrDAlaGlyPheDPheProLeuTrpOBn(CF3)2 (TY007)]",110 nM,410 nM,69.6 nM,345 nM,23.6%,9.2%,16.7 nM,22.9%,1.3 nM,3 nM,
Y[dA]GFFPLW-OBn [TyrDAlaGlyPhePheProLeuTrpOBn (TY014)],11.5 nM,36.3 nM,,76 nM,72.3%,,25.6 nM,137%,0.265 nM,124 nM,
"Y[dA]GFSPLW-{NH(3,5-(CF3)2-benzyl)} (not fully specified (residue 5); printed as TyrDAlaGlyPheSer(OGlu)ProLeuTrpNHBn(CF3)2) [TyrDAlaGlyPheSer(OGlu)ProLeuTrpNHBn(CF3)2 (TY042)]",58.5 nM,256 nM,2.83 nM,176 nM,28%,1890 nM,51.9 nM,47%,0.00027 nM,1.45 nM,
"Y[dA]GFLPLW-{OBzl(3,5-(CF3)2)} [TyrDAlaGlyPheLeuProLeuTrpOBn(CF3)2 (TY004)]",5 nM,23.3 nM,19.4 nM,,44.5%,341 nM,9.6 nM,42.5%,0.016 nM,0.8 nM,
"Y[dA]GFFPLW-{OBzl(3,5-(CF3)2)} [TyrDAlaGlyPhePheProLeuTrpOBn(CF3)2 (TY003)]",14.6 nM,28.3 nM,14.4 nM,58.7 nM,36.3%,6.6 % @ 1 uM,20.8 nM,39%,0.021 nM,0.88 nM,
"Y[dA]GFGPLW-{OBzl(3,5-(CF3)2)} [TyrDAlaGlyPheGlyProLeuTrpOBn(CF3)2 (TY006)]",36.1 nM,27 nM,5.4 nM,41.7 nM,35.9%,384 nM,50.2 nM,33.6%,0.016 nM,1 nM,
[Dmt][dA]GFMPLW-NHBn [DmtDAlaGlyPheMetProLeuTrpNHBn (TY034)],0.1 nM,0.14 nM,36.9 nM,0.4 nM,,11.4 nM,0.3 nM,,2.39 nM,317 nM,
[Dmt][dA]GF[Nle]PS(Glc)W-{NH‑Bn(CF3)2} [DmtDAlaGlyPheNleProSer(OGlu)TrpNHBn(CF3)2 (TY056)],,1.9 nM,1.2 nM,44.9 nM,66%,24.9 nM,,,0.0017 nM,10.1 nM,
Y[dA]GF[Nle]PS(Glc)W-{NH‑Bn(CF3)2} [TyrDAlaGlyPheNleProSer(OGlu)TrpNHBn(CF3)2 (TY041)],,8 nM,1.8 nM,18 nM,42%,517 nM,7.9 nM,62%,,13.6 nM,
"H-Y[dA]GFPLW-{NMe(benzyl)} (also: TFA salt, TFA salt; also called TY010) [H-Tyr-D-Ala-Gly-Phe-Pro-Leu-Trp-NMe-Bzl]",,,,,,,,,,,Ki (human NK1 receptor [11]): 1.6 nM; LogIC50 (human NK1 receptor [11]): -8.5
"H-Y[dA]GFPLW-NHBn (also: TFA salt, TFA salt; also called TY008) [H-Tyr-DAla-Gly-Phe-Pro-Leu-Trp-NH-Bzl]",,,,,,,,,,,Ki (human NK1 receptor [11]): 14 nM
Y[dA]GF[βAla]W-{O‑Bzl(CF3)2} (also called NP32) [Tyr-DAla-Gly-Phe-β-Ala-Trp-O-Bzl(CF3)2],,,,,,,,,,,Ki (rat NK1 receptor [20]): 1.6 nM; Ki (rat µ opioid receptor [21]): 11.2 nM; GTP EMax (human δ opioid receptor [1]): 87; GTP EMax (rat µ opioid receptor [2]): 70
"H-Y[dA]GF[Met(O)]PLW-{OBzl(3,5-(CF3)2)} (also: TFA salt, TFA salt; also called TY023) [H-Tyr-D-Ala-Gly-Phe-Met(O)-Pro-Leu-Trp-O-3,5-Bzl(CF3)2]",,,,,,,,,,,Ki (human δ opioid receptor [3]): 4.8 nM; LogIC50 (human δ opioid receptor [3]): -7.92; [35S]GTP-γ-S binding Emax (human δ opioid receptor [6]): 53%; [35S]GTP-γ-S binding LogEC50 (human δ opioid receptor [6]): -8.73; GPI (µ) opioid agonist IC50 [7]: 154 nM; Substance P GPI antagonist Ke (guinea pig NK1 receptor [8]): 7.8 nM; IC50 (rat NK1 receptor [9]): 54.5 nM; LogIC50 (rat NK1 receptor [9]): -7.27
"H-Y[dA]GFPLW-{NMe‑Bn(CF3)2} (also: TFA salt, TFA salt; also called TY013) [H-Tyr-D-Ala-Gly-Phe-Pro-Leu-Trp-NMe-3,5-Bzl(CF3)2]",,,,,,,,,,,Ki (rat NK1 receptor [10]): 6.1 nM; LogIC50 (human NK1 receptor [11]): -8.5
"H-Y[dA]GFPLW-{OBzl(3,5-(CF3)2)} (also: TFA salt, TFA salt; also called TY001) [H-Tyr-DAla-Gly-Phe-Pro-Leu-Trp-O-3,5-Bzl(CF3)2]",,,,,,,,,,,Ki (rat NK1 receptor [10]): 1.6 nM; LogIC50 (rat NK1 receptor [10]): -8.3; Ki (human NK1 receptor [11]): 0.0023 nM; LogIC50 (human NK1 receptor [11]): -11.3
